# From US20220380426A1
# Biological target: IL-27 receptor (on BL-2 cells) (human) (UniProt Q6UWB1)
# Assay: cell-based or functional assay
# Chain of IL-27 receptor (on BL-2 cells) (human) (Q6UWB1 33-636, chain 1 of 2): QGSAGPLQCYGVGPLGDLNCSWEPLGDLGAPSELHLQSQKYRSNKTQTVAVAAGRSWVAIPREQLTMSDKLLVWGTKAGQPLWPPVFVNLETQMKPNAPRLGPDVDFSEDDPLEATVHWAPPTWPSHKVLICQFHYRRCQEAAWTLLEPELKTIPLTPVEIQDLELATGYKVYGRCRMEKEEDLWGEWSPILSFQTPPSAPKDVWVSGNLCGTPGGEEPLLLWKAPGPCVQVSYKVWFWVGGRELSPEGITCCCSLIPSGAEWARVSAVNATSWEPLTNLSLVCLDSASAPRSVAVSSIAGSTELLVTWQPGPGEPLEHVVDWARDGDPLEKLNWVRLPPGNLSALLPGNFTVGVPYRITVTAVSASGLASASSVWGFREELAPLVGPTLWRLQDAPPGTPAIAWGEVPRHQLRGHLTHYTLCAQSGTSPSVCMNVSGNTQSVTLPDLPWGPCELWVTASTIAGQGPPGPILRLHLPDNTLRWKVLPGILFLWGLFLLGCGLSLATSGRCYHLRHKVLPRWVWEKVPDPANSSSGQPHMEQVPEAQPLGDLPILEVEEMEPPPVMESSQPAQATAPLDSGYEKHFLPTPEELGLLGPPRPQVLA
# Chain of IL-27 receptor (on BL-2 cells) (human) (P40189 23-918, chain 2 of 2, further chain): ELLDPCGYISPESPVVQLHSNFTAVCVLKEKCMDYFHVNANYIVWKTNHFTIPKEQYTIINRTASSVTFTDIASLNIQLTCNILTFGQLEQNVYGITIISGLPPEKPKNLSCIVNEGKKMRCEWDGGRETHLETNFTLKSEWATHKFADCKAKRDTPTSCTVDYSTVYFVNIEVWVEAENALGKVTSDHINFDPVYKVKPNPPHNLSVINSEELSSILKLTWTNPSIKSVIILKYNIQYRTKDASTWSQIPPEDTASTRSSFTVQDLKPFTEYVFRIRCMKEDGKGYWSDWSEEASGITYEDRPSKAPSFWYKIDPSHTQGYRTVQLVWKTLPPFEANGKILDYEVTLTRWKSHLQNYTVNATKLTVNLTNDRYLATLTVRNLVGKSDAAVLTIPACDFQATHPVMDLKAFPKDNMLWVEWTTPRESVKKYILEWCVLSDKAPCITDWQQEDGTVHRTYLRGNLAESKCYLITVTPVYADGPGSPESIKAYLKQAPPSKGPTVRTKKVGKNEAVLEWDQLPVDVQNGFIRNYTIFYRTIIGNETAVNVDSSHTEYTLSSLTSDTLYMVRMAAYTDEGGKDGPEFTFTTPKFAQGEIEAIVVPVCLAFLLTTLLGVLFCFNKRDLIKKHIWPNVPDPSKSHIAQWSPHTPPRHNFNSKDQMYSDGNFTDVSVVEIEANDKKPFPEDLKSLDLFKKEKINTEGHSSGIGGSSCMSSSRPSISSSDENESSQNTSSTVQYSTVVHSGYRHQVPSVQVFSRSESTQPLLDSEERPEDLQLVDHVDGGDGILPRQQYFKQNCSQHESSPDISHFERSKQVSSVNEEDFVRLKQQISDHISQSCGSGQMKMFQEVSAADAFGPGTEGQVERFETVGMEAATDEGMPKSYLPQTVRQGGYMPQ
substance,measurement,value
"IL-27alpha^L162C,T238A,S240A (mutein of the alpha-subunit of human Interleukin 27) (from UniProt Q8NEV9 29-243) (ligand)","STAT1 activation (immunoblotting against phosphorylated STAT1), BL-2 cells, 60 minutes, 1000 ng/mL (fold over IL-27alpha^L162C)",8.5
